Measured values from US6641994B2, “Methods of identifying anti-viral agents” (Pharmacia & Upjohn Company, priority 1999, dated 2003).

How the values were obtained:
CDK2 [1] = experiment: Effect of E7 on p21/p27 inhibition of CDK2 kinase activity; format: biochemical
Procedure: Histone H1 was chosen as the substrate in the kinase assays since pRb, a physiological CDK2 substrate, is known to bind E7 and could interfere with the assay.
For some assays, HEK293 cell lysate (100 μg total protein, prepared as described above) was preincubated with purified GST-31E7 protein in PBS in the presence of p13 agarose beads (Calbiochem) at 4° C. for one hour, and subsequently incubated with purified His-p27 for 30 min at 4° C. Preincubation was carried out to permit protein complex formation, while p13 agarose beads bind cyclin-dependent kinase complexes to facilitate purification [Dreatta, et al., Cell 56:829-838 (1989)]. After collection and washing four times with PBS, the beads were washed two additional times with KIP buffer containing 50 mM Tris-Cl, pH 7.5, 10 mM MgCl2, 5 mM EGTA, 2 mM DTT, and 10 μM ATP. […] Phosphorylated proteins were analyzed by SDS-PAGE followed by autoradiography and PhosphorImager® analysis.
In other assays, purified cyclin A- or cyclin E-complexed CDK2 was included. […] Kinase activity was measured following addition of 1 μl of 2 mCi/ml [γ-^32P] […] The reaction was stopped by adding SDS sample buffer, and phosphorylated proteins were analyzed by SDS-PAGE followed by autoradiography and PhosphorImager® analysis.

GST-cyclinA = target: T1, GST-cyclinA (Homo sapiens, UniProt P20248); format: binding; conditions: purified HPV16E7 4 μg; SDS-PAGE and immunoblotting
T1 construct: made in house; host or cells: High Five insect cells, baculovirus
T1 sequence (P20248 whole entry): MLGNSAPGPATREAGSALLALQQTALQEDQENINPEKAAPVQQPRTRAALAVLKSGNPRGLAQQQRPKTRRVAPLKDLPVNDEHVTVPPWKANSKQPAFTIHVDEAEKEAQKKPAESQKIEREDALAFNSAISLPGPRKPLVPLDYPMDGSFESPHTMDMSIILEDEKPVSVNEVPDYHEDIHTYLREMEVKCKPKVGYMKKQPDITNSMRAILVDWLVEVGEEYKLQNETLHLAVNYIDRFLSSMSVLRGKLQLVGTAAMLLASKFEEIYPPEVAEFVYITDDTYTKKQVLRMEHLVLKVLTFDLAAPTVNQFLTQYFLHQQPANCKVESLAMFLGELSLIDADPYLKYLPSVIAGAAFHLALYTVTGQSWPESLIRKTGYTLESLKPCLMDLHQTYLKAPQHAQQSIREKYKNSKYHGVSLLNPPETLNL

cyclin A/CDK2 = target: T2, cyclin A/CDK2 (Homo sapiens, UniProt P20248+P24941); format: biochemical
T2 construct: hemagglutinin (HA); made in house; host or cells: Sf9 or High Five insect cells, baculovirus co-infection
T2 sequence (P20248 whole entry, one chain of several): as the sequence (P20248 whole entry) above

HA-CDK2 = target: T3, HA-CDK2 (Homo sapiens, UniProt P24941); format: binding
T3 construct: made in house; host or cells: High Five insect cells, baculovirus

CDK2 [2] = target: T4, CDK2 (Homo sapiens, UniProt P20248+P24941); format: biochemical
T4 construct: hemagglutinin (HA); made in house; host or cells: Sf9 or High Five insect cells, baculovirus co-infection
T4 sequence (P20248 whole entry, one chain of several): as the sequence (P20248 whole entry) above

MAP kinase 1 = experiment: Kinase assay MAP kinase 1; format: biochemical
Procedure: (§1) In an attempt to determine if the E7 effects on kinase activity were specific for members of the cyclin-dependent kinase family, various kinase/substrate combinations were examined for enhanced activity in the presence of E7.
(§2) When HPV16-E7 was added to either cyclinA/CDK2 or cyclinE/CDK2 using histoneH1 as the substrate, a large increase (26-fold and 13-fold) over controls was noted as described above. When the retinoblastoma (pRb) protein was used as a substrate for cyclinE/CDK2 a 1.9-fold increase over background was noted.

CDC2/cyclinB = CDC2/cyclinB (Homo sapiens, UniProt P06493); experiment: Kinase assay CDC2/cyclinB; format: biochemical
CDC2/cyclinB, sequence (P06493 whole entry, species assumed): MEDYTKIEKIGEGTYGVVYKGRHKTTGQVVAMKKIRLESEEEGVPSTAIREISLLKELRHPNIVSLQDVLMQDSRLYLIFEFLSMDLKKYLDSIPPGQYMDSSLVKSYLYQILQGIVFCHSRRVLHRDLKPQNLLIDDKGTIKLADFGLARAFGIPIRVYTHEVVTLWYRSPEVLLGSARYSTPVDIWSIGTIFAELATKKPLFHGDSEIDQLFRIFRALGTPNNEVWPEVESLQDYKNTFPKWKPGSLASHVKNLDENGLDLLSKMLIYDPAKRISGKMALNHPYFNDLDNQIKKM
CDC2/cyclinB, sequence (P14635 whole entry partner, species assumed): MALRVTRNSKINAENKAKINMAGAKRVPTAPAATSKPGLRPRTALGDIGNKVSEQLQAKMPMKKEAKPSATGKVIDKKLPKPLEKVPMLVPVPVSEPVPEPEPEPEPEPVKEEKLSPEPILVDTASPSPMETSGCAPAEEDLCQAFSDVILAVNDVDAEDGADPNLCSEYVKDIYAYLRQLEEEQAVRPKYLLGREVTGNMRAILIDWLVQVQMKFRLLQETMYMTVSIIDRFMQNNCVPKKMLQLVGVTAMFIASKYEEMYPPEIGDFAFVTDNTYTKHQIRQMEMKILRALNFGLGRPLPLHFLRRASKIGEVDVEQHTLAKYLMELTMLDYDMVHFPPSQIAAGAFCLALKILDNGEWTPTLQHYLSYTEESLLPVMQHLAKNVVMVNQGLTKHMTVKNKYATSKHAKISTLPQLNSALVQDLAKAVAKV
Procedure: as §1, §2

CDK5 complexed with p25 = CDK5 complexed with p25 (Homo sapiens, UniProt Q00535); experiment: Kinase assay CDK5/p25, histone H1 phosphorylation; format: biochemical; conditions: over controls
CDK5 complexed with p25, sequence (Q00535 whole entry): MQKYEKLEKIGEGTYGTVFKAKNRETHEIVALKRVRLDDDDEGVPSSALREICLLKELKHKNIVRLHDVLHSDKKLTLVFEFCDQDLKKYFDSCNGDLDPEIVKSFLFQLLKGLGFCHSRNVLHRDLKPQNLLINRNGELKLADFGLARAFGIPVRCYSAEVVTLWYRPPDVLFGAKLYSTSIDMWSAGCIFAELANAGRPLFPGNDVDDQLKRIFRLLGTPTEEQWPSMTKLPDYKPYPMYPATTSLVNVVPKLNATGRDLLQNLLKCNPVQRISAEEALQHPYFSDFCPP
CDK5 complexed with p25, sequence (Q15078 99-307 partner limits assumed): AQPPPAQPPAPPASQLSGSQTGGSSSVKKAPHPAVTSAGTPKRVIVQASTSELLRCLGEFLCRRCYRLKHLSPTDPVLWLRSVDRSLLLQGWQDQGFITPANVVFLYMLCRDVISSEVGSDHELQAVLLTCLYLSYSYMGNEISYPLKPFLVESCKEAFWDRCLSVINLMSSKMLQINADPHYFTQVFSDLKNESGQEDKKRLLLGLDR

cyclin E/CDK2 = target: T5, cyclin E/CDK2 (Homo sapiens, UniProt P24941); format: biochemical
T5 construct: hemagglutinin (HA); made in house; host or cells: Sf9 or High Five insect cells, baculovirus co-infection

## E7: HPV E7 protein or GST-E7 fusion, strain not named at the place; b203 used purified HPV16E7
CDK2 [1]; histone H1 substrate
  effect on p21- and p27-dependent inhibition of cyclin E/CDK2 activity: little or no effect
CDK2 [1]; purified cyclin E/CDK2 and cyclin A/CDK2, solution kinase assay
  effect on p27 inhibition of CDK2 activity: little or no effect
GST-cyclinA
  binding to beads containing GST-cyclinA: binding
Cyclin A/CDK2
  phosphorylation of HPV E2 by CDK2/cyclinA: enhanced
HA-CDK2
  binding to beads with immobilized HA-CDK2: no binding
CDK2 [2]
  peak stimulatory activity (concentration): approximately 0.29 μM
CDK2 [2]; read-out: 50% stimulatory concentration of E7
  EC50: ~180 nM

B1: GST-16E7: HPV16 E7 protein expressed as a glutathione-S-transferase (GST) fusion protein (protein)
chain: MHGDTPTLHEYMLDLQPETTDLYCYEQLNDSSEEEDEIDGPAGQAEPDRAHYNIVTFCCKCDSTLRLCVQSTHVDIRTLEDLLMGTLGIVCPICSQKP
modifications: left off: a dimerising Fc or GST
MAP kinase 1
  MAP kinase 1 activity: unaffected
CDC2/cyclinB
  CDC2/cyclinB activity: unaffected
CDK5 complexed with p25
  increase in H1 phosphorylation by CDK5 complexed with p25: 4.5 fold
Cyclin A/CDK2
  effect on cyclin A/CDK2 histone H1 kinase activity: significant effect
Cyclin A/CDK2; read-out: Km for histone H1
  Km: 1.1 µM
Cyclin E/CDK2
  increase in cyclinE/CDK2 kinase activity: 13 fold
  increase in pRb kinase activity: 1.9 fold
  stimulation of cyclin E/CDK2 phosphorylation of MBP-HPV 18 E1 fusion protein: 2.3 fold
